The nature of the data set: label from the status in PepcDB records.
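Further: failed if final PepcDB status was selected cloned or expressed and not failed if soluble or beyond.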

Turning to “MSRNEVLLNGDINFKEVRCVGDNGEVYGIISSKEALHIAQNLGLDLVLISASAKPPVCKVMDYNKFRYQNEKKIKEAKKKQKQIEIKEIKLSTQIAQNDINYKVKHAREFIESNKHVKFKVVLKGRESQNSKAGLDVLFRVQTMMQDLANPEKEPKTEGRFVSWMFVPKAKEAPKNEKKTKENNPPFNRINLMKGENHAKNED”, the protein production entry was “failed”.

As to “MSRNKGVQYLSSSEHSLKDYLPILSMAGLILIVQVLALLLSMPMEINDMQAFEDPTQVSNSIYYIVMILVFTLFVLIAIKKNMKWIISLLIYLAIVSTLYYVFFALFTLIPALAGLENIASLLLSIGLTVLLYKYPEWYVIDLLGVCIAGGVSALIGISLSIIPVVVLLILLAVYDAISVYKTKHMIAMAEGVMDLKLPILFIIPKHLNYSFITEGFKEGEKREAFFMGLGDAVMPTLLVVSANVFLENGGLSYPVLGAMLGTLVGHIFLSILVMRGKPQAGLPFLNSGAIIGFFIGVLFSGASIL”, the protein production result was “failed”.

As to “MSRPPTTPSAPQTADLVRPARRGDLDGLLALARAADAGMTNLPADRAALDDRLAASEQALIDPETRNAGAAVYLVLERQGRVIGAACVFARIGVAQPFYSYRVTRLTQLSPDLGKRVEMSVLTLVNDLTDQAEVGGLFVAPDAR”, the protein production result was “failed”.

Regarding “MSRRGLLLMGQCMPCIKQNASKIRIRRMELDKNLNMYFKKDEFYFAHDPQKVCKTGDVVLIRELPERLTRLITHNVEKVVYPLGDITDPLTGKKVVVGNYREDIEMANQLFGKSEKAFDYEKAPPRGRLEGTKDFTHGETYIKYHEDGKDQPFAV”, the protein production result is “failed”.

With “MSRRNGGLFPTDLQTIARDIGSLLLMEAGLMTITAAVALGFQEFYAAFGFFTAAGMTAGVGGLANRGFSDAPAPQMKHGMVIAAGGWLLVAAFGSLPFLLTAWFTPPAVMDTFVPVGTDTSTWAPIRVGGTTTLSSLAYFRNPLHAFFESMSGWTGSGLTMAIHEPSLPRAVQWWRSFIQYVGGVGVIVLTVSILSRPGSGSYALYQSEAREEKIHPSVVSTVRTVWKLVVGYTVLSFALLFGAILASDSEYAESLPLWEVAWQALNHAMTGLTTGGFSVTDNSIATYNSPLVETVLLPIMILGAIAFPVHYVVLHDRQVRELVTDLQTRWLFILLTVGVVGLSVQNAWSVPATTEAFATQSFLPVSVPMLNAAQLDAVRDSTFQWVSALSCTGFQSAPIGRWLAGGKVLVAGAMVLGGAAGSTVGGIKIIRGYTIVRGIIWQFSRVFLPTNAVITARIGNRTLDRESMEREFSEAAIVTLLWLIILIISSVVLTNVAGPAFGYADALFEVASAQGNVGLSSGITGPSMPAIAEGMFVLNMWVGRLEIIPILVFIRAGLYGLDP”, the protein production result is listed as “failed”.

As to “MSRRYWQLDVFAERPLTGNGLAVFDDASALDDAAMQAWTRELRQFESIFLLPGDDPRAFRARIFTLEEELPFAGHPLLGAAALLHHLRGGDNEQHWTLHLASKSVALRSVRAGSGFYAEMDQGRAEFGATPDAGTCRWFAEAFSLSANDLSGHPPRVVSTGLPYLLLPVTAEALGRARQVNDLQEALDKLGAAFVYLLDVDGREGRTWDNLGLVEDVATGSAAGPVAAYLVEYGLAARGEPFVLHQGRFLERPSRLDVQVATDGSVRVGGHVQLLARAELLTSA”, the protein production result is listed as “not failed”.

In the case of “MSRSQLTILTNICLIEDLETQRVVMQYRAPENNRWSGYAFPGGHVENDEAFAESVIREIYEETGLTIQNPQLVGIKNWPLDTGGRYIVICYKATEFSGTLQSSEEGEVSWVQKDQIPNLNLAYDMLPLMEMMEAPDKSEFFYPRRTEDDWEKKIF”, the protein production entry was “not failed”.

Turning to “MSRTEGSHEAEQDLTMIVGTYTSGDSKGLYSFRFNEENGTATALSEAEVENPSYLVPSADGKFIYAVSEFSNEQAAANAFAFNKEEGTFRLLNTQKTGGEDPCYIITNGSNVVTANYSGGSISVFPIDKDGSLLPASEVVKFKGSGADKERQEKPHLHCVRITPDGKYLFADDLGTDQIHKFIVNPNAKADNEDVFLKEGSPASYKVEAGSGPRHLTFAPNGSYAYLINELSGTVIAFEYNDGELKEIQTIAADTVGAKGSGDIHISPDGKFLYASNRLKADGLAIFSIHPENGMLTKVGYQLTGIHPRNFIITPNGKYLLVACRDSNVIQVYERDTDTGLLTDIRKDIKVDKPVCIKFVPLEHHHHHH”, the protein production entry was “not failed”.

“MSRTMAEVNRLLKKTAGLINKDTESPFQGEFRVGVDLGTADIQTIVLDADGNPLAGFMDWANVVRDGVVVDFFGASQIVREQVRRASAKLGIQIEQVTTSFPPGTDSRISTNVIEAAGLEVAGVIDEPSSVAQLLQLDHAAVVDIGGGTTGTAIIEEGRVVRSMDDATGGRHITLTLAGHFGLPYEEAEEMKRTSKDLALCRLAAPVIAKMADIVHGHIAGHKVPAIYLTGGSCALPGFLEVFAAEFPGIEIVMPSHPLYLTPLAIATYSDVLQTREQRVGLEHHHHHH”: the protein production entry was “failed”.

On to “MSRVAGLSSKKSRWLLQSLLDQQRHSLGTGFESANILLSPKYHLKDKDLRKIHKAARDGDAARVQQLLLGKHCVNDKDKKKRTALHIACAYGHPKVVMALVEGKCEVNATDSEECTSLVKAVQCQEEECATILLENNADPNIVDAQGNSALHYAVYYKNTSLAAKLLDHEVNIEATNKDGFTPFLLAVSENKLKIAKFLLMKNASIHAADNQKRTALMHAVSHDSTNLVRFVLEQGVDLFVKDAFGLTAIDYAADFKYNSKDQQSQELENMEKKYTAAQDSLEYTAAQDSLEHTAAQDSLEHTAAQDGLEYTAAQDSLEHTAAQDSLEHTAAQDSLEHTAAQDSLEYTAAQDSLEYTAAQDSLEYTAAQDSLEHTAAQDSLEYTAAQDSLEHTAAQDSLECTAASNSSRSHALITHVHLSAEPDGGVTSVEEPRRLDDRGDDQPQEAVTAPRTREKEQDMCTVVTGKEDEDESSWDSETNPPSPWGAPEALCAAALDHGDIGSPLTRENGHPRARQSPSVDSEEQDGGSGLNIKEEKTRDHEEWSGDFLMDRTSKESEPAAGDLLQVKDSWSLNDTDPNKGRSGGDPIEESRNATDLNHCKAVYIPPSESANSEIWKGMSSAKARLDNASKGPTVTRF”, for which the protein production result is listed as “failed”.

With “MSRVPGWLGRLGAGLTRASERLEQRREEARRDDADDGPGPVSDHERRPLDDTAEDSAVEHLAAHRPVALAHRPDPAQAVPWGVRVAAEAGWRLLVLAGTVWVLMRVISAVQLVVLAFVAALLITALLQPAVAWLRRHGVPRGPATALTAILGFVVMGLIGWFVTWQVMENIDNLSDQVQDGIDELRNWLLNSPFHVTDKQINEIAKNLRDAVGANTDQITSAGLEGVTVVVEALTGILLAAFSTLFLLYDGKRIWQWSLKLVPAAARPGVAGAGPRAWRTLTAYVRGTVIVALIDAIFIGLGIYFLDVPMAVPLAVFIFLFAFIPLVGAVVSGALAVVVALVTQGVFAAVMTLVVVLAVQQIEGHILQPFILGRAVRVHPLAVVLSVAAGGMVAGIGGAVVAVPLVAVTNTVVGYLRAYSREAALRRTPRPHGATSTDAAPAVDRVPGPPKPPAPPADGPPSDAP”, the protein production result is “failed”.

Regarding “MSRYDITGSEGEYEPGSDNKVLRNLPGITDPEEMNIVETDLLEDLYLQVFDNFPEELTFETLCQWHRAWLGNVYSWAGQSRTVDMSKPNIRFASPVQIPKLAEKFEARYLPRFAELPEMTDEELVAFLAEVHVEFILIHPFREGNGRISRLLLDVMAAKAGAEPLDYSLWDEHKDFYFKAIQAGRDGDYQHVERLIRDVLEAQQ”, the protein production entry was “failed”.

Turning to “MSSAIERKSLDPSEEPVDEVLQIPPSLLTCGGCQQNIGDRYFLKAIDQYWHEDCLSCDLCGCRLGEVGRRLYYKLGRKLCRRDYLRLFGQDGLCASCDKRIRAYEMTMRVKDKVYHLECFKCAACQKHFCVGDRYLLINSDIVCEQDIYEWTKINGMI”, the protein production result is listed as “failed”.

On to “MSSALLRVAYAYDRLRAHPPEVAGQIATAMASAVHPKGEEPVFLELGVGTGRIALPLIARGYRYIALDADAAMLEVFRQKIAGVDRKVQVVQADARAIPLPDESVHGVIVVHLWHLVPDWPKVLAEAIRVLKPGGALLEGWDQAEESPEWTLQERWRAFAAEEGFPVERGLHAKRLKEVEEALRCLGLKPRTREVARWREERTPREALEALSERLYSFTQGLPEPVHARVMERLWAWAEAELGDLDRPFPVEKRFLLRVSRLG”, for which the protein production result is listed as “failed”.

These data come from a protein production outcome set (Wang et al. 2014).
